Data on 1 molecule can be found in PMC10069731 (2023).

This assay concerns the target SARS-CoV-2 WT RBD (SARS-CoV-2, UniProt P0DTC2). Kind of assay: BLI. A general note: BLI is a label-free optical method that tracks binding on a fibre tip over time.

B1: rabbit monoclonal antibody (RmAb) 1H1, IgG (antibody, V domains shown)
VH: QSLEESGGDLVKPGASLTLTCTASGFSFSSGYDMCWVRQAPGKGLEWIACIGTGSSGNIYYASWAKGRFTISKTSSTTVTLQMTSLTAADTATYFCARDDADYAGPDYFNLWGPGTLVTVSS
VL: DIVMTQTPASVSEPVGGTVTIKCQASESISNWLAWYQQKPGQPPKLLIYAAFTLASGVPSRFKGSGSGTQFTLTINGVECADAATYYCQQTYSSRDVDNVFGGGTEVVVK
Turning to B1, the dissociation constant Kd turned out to be 0.0898 nM.

In general, Kd refers to the concentration at which binding is half-saturated. Low readings indicate a tighter complex, high ones a looser complex.
